As usually defined, the EC50 is the midpoint of the concentration-response curve.

These results are taken from patent publication US20240252667A1.

The target in assay [1] is human insulin receptor extracellular domain (HIR ECD) (human) (UniProt P06213). Nature of the assay: ELISA, HIR ECD plated (HIR receptor assay).
The target is the same in assay [2]. In words: ELISA, HIR ECD plated; against HIR Ab alone. Background: In an ELISA, binding on a coated surface is turned into a signal by an enzyme label.
For assay [3] the target is unchanged. Nature of the assay: ELISA, HIR ECD plated, biotinylated goat anti-human IgG detection.

As for “GUSB-HIR Ab fusion protein (GUSB fused to the amino terminus of the HIR Ab heavy chain) (from UniProt P08236 23-633) (antibody)”, in assay [1], the EC50 is 4.8 nM. This substance displayed a reduction in receptor binding affinity in assay [2] of 95%. “HIR Ab-GUSB fusion protein (GUSB fused to the carboxyl terminus of the HIR Ab heavy chain) (from UniProt P08236 23-633) (antibody)” yielded an EC50 in assay [3] of 0.81 nM.
